# Results: article PMC10786891, “Massively parallel profiling of RNA-targeting CRISPR-Cas13d”
# Residue numbers refer to the chain shown, from its start. In names and notes the source's numbering stands.
# T1: EsCas13d, nuclease-dead (Eubacterium siraeum, UniProt B0MS50, R295A;H300A;R849A;H854A)
# T1 sequence: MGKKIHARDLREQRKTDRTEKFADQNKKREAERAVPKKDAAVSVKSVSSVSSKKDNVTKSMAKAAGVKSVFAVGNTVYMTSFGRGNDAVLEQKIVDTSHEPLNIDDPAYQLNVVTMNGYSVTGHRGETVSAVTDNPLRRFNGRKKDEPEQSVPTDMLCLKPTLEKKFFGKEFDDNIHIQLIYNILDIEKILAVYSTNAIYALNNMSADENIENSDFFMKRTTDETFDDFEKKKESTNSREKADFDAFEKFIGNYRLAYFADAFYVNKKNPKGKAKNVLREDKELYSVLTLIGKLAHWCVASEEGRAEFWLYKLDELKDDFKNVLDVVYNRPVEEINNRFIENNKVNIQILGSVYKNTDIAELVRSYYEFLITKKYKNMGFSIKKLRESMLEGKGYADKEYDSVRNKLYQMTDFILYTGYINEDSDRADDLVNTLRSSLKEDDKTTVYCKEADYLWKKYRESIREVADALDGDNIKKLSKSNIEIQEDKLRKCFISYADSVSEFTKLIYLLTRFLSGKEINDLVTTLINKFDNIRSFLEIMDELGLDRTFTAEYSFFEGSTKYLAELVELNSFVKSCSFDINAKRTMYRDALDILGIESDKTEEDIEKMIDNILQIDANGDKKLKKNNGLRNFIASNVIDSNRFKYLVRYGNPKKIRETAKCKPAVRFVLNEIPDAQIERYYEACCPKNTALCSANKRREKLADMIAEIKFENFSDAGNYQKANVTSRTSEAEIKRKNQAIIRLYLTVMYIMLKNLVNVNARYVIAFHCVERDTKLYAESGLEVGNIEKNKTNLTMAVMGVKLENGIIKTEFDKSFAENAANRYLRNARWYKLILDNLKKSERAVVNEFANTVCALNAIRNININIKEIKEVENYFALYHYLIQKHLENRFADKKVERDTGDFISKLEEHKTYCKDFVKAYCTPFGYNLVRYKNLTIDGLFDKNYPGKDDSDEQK
# B1: target 1 insU 3' of 21,insC 3' of 1 (mixed)
# RNA 1: CACCCGUGCAAAAAUGCAGGGGUCUAAAACUGAGCGGAUAACCUCUCUAUGG
# RNA 2: GGGAAUGGAUCCACAUCUACGAAUUCGUACCUAUAGAGAGGUUAUCCGCUCACCCGAGAUCGGAAGAGCACACGU
# B2: target 3 insA 3' of 15,insG 3' of 2 (mixed)
# RNA 1: CACCCGUGCAAAAUUGCAGGGGUCUAAAACGACCUGAAUAUUUCAGAUCAAA
# RNA 2: GGGAAUGGAUCCACAUCUACGAAUUCGUUUUUGAUCUAGAAAUAUUCAGGUGCUGCAGAUCGGAAGAGCACACGU
# B3: target 3 A18G,U22A (mixed)
# RNA 1: B2 RNA 1
# RNA 2: GGGAAUGGAUCCACAUCUACGAAUUCGUUAUUGGUCUGAAAUAUUCAGGUCUGCAGAUCGGAAGAGCACACGU
# B4: target 3 A5U,U7A (mixed)
# RNA 1: B2 RNA 1
# RNA 2: B3 RNA 2 with A30U, G34A, U45A, A47U
# B5: target 3 C6A,A11G (mixed)
# RNA 1: B2 RNA 1
# RNA 2: B3 RNA 2 with A30U, G34A, A41G, C46A
# B6: target 3 insC 3' of 7,insC 3' of 2 (mixed)
# RNA 1: B2 RNA 1
# RNA 2: B2 RNA 2 with A38G, G39A, A42U, U43A, A44U, U46C, G52C
# B7: target 3 insU 3' of 3,insG 3' of 2 (mixed)
# RNA 1: B2 RNA 1
# RNA 2: B2 RNA 2 with A38G, G39A, A42U, U43A, A44U, U46C, C47A, A48G, G50U
# B8: target 3 U2G,A18G (mixed)
# RNA 1: B2 RNA 1
# RNA 2: B3 RNA 2 with A30U, U50G
# B9: target 3 G4C,A5C (mixed)
# RNA 1: B2 RNA 1
# RNA 2: B3 RNA 2 with A30U, G34A, A47C, G48C
# B10: target 3 G4U,U21G (mixed)
# RNA 1: B2 RNA 1
# RNA 2: B3 RNA 2 with A30U, U31G, G34A, G48U
# B11: target 3 insU 3' of 19 (mixed)
# RNA 1: B2 RNA 1
# RNA 2: GGGAAUGGAUCCACAUCUACGAAUUCGUUUUUGUAUCUGAAAUAUUCAGGUCUGCAGAUCGGAAGAGCACACGU
# B12: target 3 U2G,A5U (mixed)
# RNA 1: B2 RNA 1
# RNA 2: B3 RNA 2 with A30U, G34A, A47U, U50G
# B13: target 3 C1G,C6G (mixed)
# RNA 1: B2 RNA 1
# RNA 2: B3 RNA 2 with A30U, G34A, C46G, C51G
# B14: target 3 insU 3' of 22,insU 3' of 11 (mixed)
# RNA 1: B2 RNA 1
# RNA 2: GGGAAUGGAUCCACAUCUACGAAUUCGUUUUUUGAUCUGAAAUUAUUCAGGUCUGCAGAUCGGAAGAGCACACGU
# B15: target 3 G3U,G4A (mixed)
# RNA 1: B2 RNA 1
# RNA 2: B3 RNA 2 with A30U, G34A, G48A, G49U
# Molecular target: T1, EsCas13d, nuclease-dead
# Assay: crRNA (strand 1, pre-loaded); Mg2+; 40 mM Tris-HCl pH 7.5, 150 mM NaCl, 6 mM MgCl2, 1 mM DTT, 0.1% Tween-20, 0.2 mg/ml BSA; 25 C; 10 min per concentration, then washed
# Conditions: tags: His6-TwinStrep-SUMO cleaved; N-terminal SNAP kept (SNAP-Surface 488); label: 3' end held by stalled T7 RNA polymerase
row,Binder,Kd [nM]
1,B1,20.5 ± 0.8
2,B2,68.5 ± 21.5
3,B3,14.8 ± 1.75
4,B4,62.4 ± 5.4
5,B5,98 ± 23
6,B6,~120
7,B7,27 ± 4.5
8,B8,59.5 ± 7.5
9,B9,130 ± 40
10,B10,65 ± 14
11,B11,78 ± 29.5
12,B12,9.2 ± 1.2
13,B13,18.7 ± 3.15
14,B14,62 ± 19.5
15,B15,7.75 ± 1.05
